One substance from paper PMC10439073 can be followed below.

What all share (assay): SPR
For orientation: Surface plasmon resonance follows binding to a sensor surface in real time, without labels.

The target of assay [1] is BAT1706 (human).
In assay [2] the target is EU-bevacizumab (human).
For assay [3], the target named is US-bevacizumab (human).

Turning to “FcγRIIIa-158F (from UniProt P08637 17-208) (receptor)”, the dissociation constant Kd in assay [1] was 769 nM; in assay [2], 951 nM; in assay [3] it was 983 nM.

What is called Kd is a measure of binding affinity in units of concentration. Higher therefore signals a looser complex.
